# Measurements from the nanobody polyreactivity screen of Harvey et al. (2022).
# Test: yeast display, Sf9 membrane polyspecificity reagent, FACS + sequencing; frameworks hold sequencing errors
# Outline: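 In a synthetic yeast display library (Saccharomyces cerevisiae BJ5465), nanobody expression was induced with galactose for 36–48 hours. FACS gates were set low and high (top ~1%) using anti-HA fluorescence for expression and streptavidin fluorescence for binding of the Sf9 membrane reagent. Each polyreactivity label is drawn from the gate of origin.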
row,Sequence,polyreactivity (PSR sort gate)
1,QVQLVESGGGLVQAGGSLRLSCAASGFIFDYYAMGWYRPAPAKERELVAAISCRGGTTYYADSVKGRFTISRDNAKNTVYLQMNSLKPEDTAVYYCAAGRFYGFGYGYWGQGTQVTVSS,high polyreactivity
2,QVQLVESGGGLVQAGGSLRLSCAASGFIFDYYAMGWYRQAPGKERELVAAITRDGGGTYYADSVKGRFTISRDNAKNTVYFQMNSLKPEDTAVYYCAARTAYYHGSKYYYRGQGTQVTVSS,high polyreactivity
3,QVQLVESGGGLVQAGGSLRLSCAASGFIFDYYAMGWYRQAPGKERELVAAITSRGGSTYYADSVKGRFTISRDNAKNTVYLQMNSLKPEDTAVYYCAARRRSAEYNYWGQGTQVTVSS,high polyreactivity
4,QVQLVESGGGLVQAGGSLRLSCAASGFIFEPNAMGWYRQAPGKERELVAAISWSGGSTYYADSVKGRFTISRDNAKNTVYLQMNSLKPEDTAVYYCNAAVRGVGELDYWGQGTQVTVSS,high polyreactivity
5,QVQLVESGGGLVQAGGSLRLSCAASGFIFEPNAMGWYRQAPGKERELVAAISWSGGSTYYADSVKGRFTISRDNAKNTVYLQMNSLKPEDTAVYYCNADITYAYYEYGSWGQGTQVTVSS,high polyreactivity
6,QVQLVESGGGLVQAGGSLRLSCAASGFIFEPYAMGWYRQAPGKERELVAAISSGGSTYADSVKGRFTISRDNAKNTVYLQMNSLKPEDTAVYYCAADSYYSVWGFYYWGQGTQVTVSS,low polyreactivity
7,QVQLVESGGGLVQAGGSLRLSCAASGFIFERNTMGWYRQAPGKERELVATISRSAGNTYYADSVKGRFTISRDNANNTVYLQMNSLKPEDSAAYYCAKDHRTRGYDYWGQGTQVSVSS,low polyreactivity
8,QVQLVESGGGLVQAGGSLRLSCAASGFIFERYTMGWYRQAPGKERELVAAISDSGGSTYYADSVKGRFTISRDNAKNTVYLQMNSLKPEDTAVYYCATTQYTTYGRRYYWGQGTQVTVSS,high polyreactivity
9,QVQLVESGGGLVQAGGSLRLSCAASGFIFFAYAMGWYRQAPGKERELVAAISRTGGSTYYADSVKGRFTISRDNAKNTVYLQMNSLKPEDTAVYYCARPKYAWSYSRGNYWGQGTQVTVSS,high polyreactivity
10,QVQLVESGGGLVQAGGSLRLSCAASGFIFFEYAMGWYRQAPGKERELVAAISWSDDTTYYADSVKGRFTISRDNAKNTVYLQMNSLKPEDTAVYYCAAEKVSGQGEMDYWGQGTQVTVSS,low polyreactivity
11,QVQLVESGGGLVQAGGSLRLSCAASGFIFFFYAMGWYSQAPGKERELVASISWNGGSTYYADSVKGRFTISRDNAKNTVYLQMNSLKPEDTAVYYCNKDPVSLWYYSKDYTYDYWGQGTQVTVSS,low polyreactivity
12,QVQLVESGGGLVQAGGSLRLSCAASGFIFFGEYVMGWYRQAPGKEREFVAAISRSSATTYYADSVKGRFTISRDTAKNTVYLQMNSLKPEDTAVYYCNAGDLGRRWGMDYWGQGTQVTVSS,low polyreactivity
13,QVQLVESGGGLVQAGGSLRLSCAASGFIFFGEYVMGWYRQAPGKEREFVAAITDSDGSTYYADSVKGRFTISRDNAKNTVYLQMTSLKPEDTAVYYCAAERVCSDMDYWGQGTQVTVSS,low polyreactivity
14,QVQLVESGGGLVQAGGSLRLSCAASGFIFFLYAMGWYRQAPGKERELVARISGGGDSTSYADSVKGRFTISRDNAKNTVYLQMNSLKPEDTAVYYCAADVWGSGGELGYWGQGTQVTVSS,low polyreactivity
15,QVQLVESGGGLVQAGGSLRLSCAASGFIFFRYAMGWYRQAPGKERELVAAISRTGGRTYYADSVKGRFTISRDNAKNTVYLQMNSLKPEDTAVYYCAARRHSRVKYRDYWGQGTQVTVSS,high polyreactivity
16,QVQLVESGGGLVQAGGSLRLSCAASGFIFFYAMGWYRQAPGKERELVASIDSGVSTDYADSVKGRFTISRDNAKNTVYLQMNSLTPEDTAVYYCAADPWSSLNYDYWGQGTQVTVSS,low polyreactivity
17,QVQLVESGGGLVQAGGSLRLSCAASGFIFFYYAMGWYRQAHGKERELVAAISASGGSTYYADSVKGRFTISRDNAKNTVYLQMNSLKPEDTAVYYCATDPISRARLYGQRDYWGQGTQVTVSS,high polyreactivity
18,QVQLVESGGGLVQAGGSLRLSCAASGFIFGDNAMGWYRQAPGKERELVAAINSSGGRTYYADSVKGRFTISRDNAKNTVYLQMNSLKPEDTAVYYCNAAYGIASYGSSYYWGQGTQVTVSS,high polyreactivity
19,QVQLVESGGGLVQAGGSLRLSCAASGFIFGDYAMGWYRQAPGKERELVAAISRSGGRTYYADSVKGRFTISRDNAKNTVYLQMNSLKPEDTAVYYCAKSSLNIYDYWGQGTQVTVSS,high polyreactivity
20,QVQLVESGGGLVQAGGSLRLSCAASGFIFGGNAMGWFRQAPGKERELVAAIRSGGSTYYADSVKGRFTISRDNAKNTVYLQMNSLKPEDTAVYYCAAELYDVYDLDYWGQGTQVTVSS,low polyreactivity
21,QVQLVESGGGLVQAGGSLRLSCAASGFIFGGNAMGWYRQAPGNERELVARISSGGITSYADSVKGRFTISRDNAKNSVYLQMYSLKPEDTAVYYCAADDYVSTQDDSYYEYDYWGQGTQVTVSS,low polyreactivity
22,QVQLVESGGGLVQAGGSLRLSCAASGFIFGGYAMGWYRQAPGKERELVAAISSGGGTTYADSVKGRFTISRDNAKYTVYLQMNSLKPEDTAVYYGAAVTRDYRNDRRRQRYYYWGQGTQVTVSS,high polyreactivity

row,Sequence,polyreactivity (PSR sort gate)
1,QVQLVESGGGLVQAGGSLRLSCAASGFIFGGYAMGWYRQAPGKERELVAAITWSGGNTYYADSVKGRFTISRDNAKNTVYLQMNSLKPEDTAVYYCAADYWTKYGYWGLGTQVTVSS,low polyreactivity
2,QVQLVESGGGLVQAGGSLRLSCAASGFIFGGYPMGWYRQAPGKERELVAAITIRGGSTSYADSVKGRFTISRDIAMNTVYLQMNSLKPEDSAVYYCNRQSRNAGGYYWGQGTQVTVSS,low polyreactivity
3,QVQLVESGGGLVQAGGSLRLSCAASGFIFGHYAMGWYRQAPGKERELVAGIISSGGSTHYADSVKGRFTISRDNAKNTVYLQMNSLKPEDTAVYFCAADVYRYYAGSRYYYWGQGTQVTVSS,low polyreactivity
4,QVQLVESGGGLVQAGGSLRLSCAASGFIFGINAMGWYRQAPGKERELVAAISKRTGSTYYADSVKGRFTISRDTAKNTVYLQMNSLKPEDTAVYYCNVVRYNGLDKYDYWGQGTQVTVSS,high polyreactivity
5,QVQLVESGGGLVQAGGSLRLSCAASGFIFGIYAMGWYRQAPGKEREFVAAITGSAGSTYYADSVKGRFTISRDNAKNTVYLQMNSLKPEDTAVYYCAAVLRTHRYGGYNYWGQGSQVTVSS,low polyreactivity
6,QVQLVESGGGLVQAGGSLRLSCAASGFIFGLYAMGWYRQAPGKERELVAAISWSGGSTYYADSVKGRFTISRDNAKNTVYLQMNSLKPEDTAVYYCAKRGGYGYEYYYWGQGTQVTVSS,high polyreactivity
7,QVQLVESGGGLVQAGGSLRLSCAASGFIFGLYAMGWYRQAPGKERELVAAITWRGSTYYADSVKGRFTISRDNAKNTVYLQMNSLKPEDTAVYYCNDVRSAYILSNDYWGQGTQVTVSS,high polyreactivity
8,QVQLVESGGGLVQAGGSLRLSCAASGFIFGNYALGWYRQAPWKERELVAGISGTGGSTYYADSVKGRFTISRDNAKNTVYLQMNSLKPEDTAVYYCAARIFKRQSFDYWGQGTQVTVSS,high polyreactivity
9,QVQLVESGGGLVQAGGSLRLSCAASGFIFGPYTMGWYRQAPGKERELVAAINNSGSTYYADSVKGRFTISRDNAKNTVYLQMNSLKPEDTAVYYCAAEPIIFVRYDYWGQGTQVTVSS,low polyreactivity
10,QVQLVESGGGLVQAGGSLRLSCAASGFIFGRNAMGWYRQAPGKERELVAGISSSGVRTFYADSVKGRFTISRDNAKNTVYLQMNSLKPEDTAVYYCATRGRVYPTKYSLDEDYWGQGTQVTVSS,high polyreactivity
11,QVQLVESGGGLVQAGGSLRLSCAASGFIFGRYAMGWYRQAPGKEREFVAAITWRGGNTYYADSVKGRFTISRDNAKNTVYLQMNSLKPEDTAVYYCAKKTAGHPWGPIYDYWGQGTQVTVSS,high polyreactivity
12,QVQLVESGGGLVQAGGSLRLSCAASGFIFGSYAMGWSRQAPGKERELVDAITRGGGNTYYADSVKGRFTISRDNAKNTVYLQMNSLKPEDTAVYYCAAVWGKRGYYYWGQGTQVTVSS,high polyreactivity
13,QVQLVESGGGLVQAGGSLRLSCAASGFIFGSYAMGWYRQAPGKERELVAAITSGTTTYYADSVKGRFTISRDNAKNTVYLQMNSLKPEDTAVYYCAATLIYHYWQLFIISTMGYWGQGTQVTVSS,low polyreactivity
14,QVQLVESGGGLVQAGGSLRLSCAASGFIFGTYAMGWYRHAPGKERELVAAISVGGGSTYYADSVKGRFTISRDNAKNTVYLQMNSLKPEDTAVYYCAAVQLFQKHQITYVANEYWGQGTQVTVSS,low polyreactivity
15,QVQLVESGGGLVQAGGSLRLSCAASGFIFGTYAMGWYRQAPGKERELVAAISVGGGSTYYADSVKGRFTISRDKAKNTVYLQMNSLKPEDTADYYCAAVQLYQKHQITYVAHEYWGQGTQVTVSS,low polyreactivity
16,QVQLVESGGGLVQAGGSLRLSCAASGFIFGTYAMGWYRQAPGKERELVAAITGSGGDTYYADSVKGRFTISRDNAKNTVYLQMNSLKPEDTAVYYCAAVRPPTPSRRREDYWGQGTQVTVSS,low polyreactivity
17,QVQLVESGGGLVQAGGSLRLSCAASGFIFGTYVMGLYRTAPGKERELLAAISESGGRTYYADSVKGRFTISRDNAKNTVYIQMNSLIPEDTAVYYCAKVRHIRFHYYYGYQSYYYWGQGTQVTVSS,high polyreactivity
18,QVQLVESGGGLVQAGGSLRLSCAASGFIFGVNAMGWYRQAPGKERELVAAIRWRGGSTYYADSVKGRFTISRDNAKNTVYLQMNSLKPEDTAVYYCAAARFVGGSGYVRILYYWGQGTQVTVSS,high polyreactivity
19,QVQLVESGGGLVQAGGSLRLSCAASGFIFGVYAMGWYRQAPGKERELVAAISGSGGTTYYADSVKGRFTISRDNAKNTVYLQMISLKPEDTAVYYCNAAYRVRYIVNYDYWGQGTQVTVSS,low polyreactivity
20,QVQLVESGGGLVQAGGSLRLSCAASGFIFGVYAMGWYRQAPGKERELVASISVSGDDTYYADSVKGRFTISRDNAKNTVYLQMNSLKPEDTAVYYCAADYPGGIYYDDYLYDMDYWGQGTQVTVSS,low polyreactivity
21,QVQLVESGGGLVQAGGSLRLSCAASGFIFGVYDMGRYRQAPVKERDLVAAISIDDITNYADSVKGRFTISRDNAKNTVYLHLNSLKPEVTAVYYCAADGRTWWSNLEGEYWGQGTQVTVSS,low polyreactivity
